Test results taken from the supplement of paper PMC7877785.
± gives the uncertainty stated by the source.

Experiment: self-splicing fitness, log relative to wild type (ln ratio); higher = more splicing; Tetrahymena group I intron in knt gene, E. coli kanamycin selection, DiMSum; sequences stand for … in CUCUCU…GGAGGGAAAAGUUAUCAGGCAUGCACCUGGUAGCUAGUCUUUAAACCAAUAGAUUGCAUCGGUUUAAAAGGCAAGACCGUCAAAUUGCGGGAAAGGGGUCAACAGCCGUUCAGUACCAAGUCUCAGGGGAAACUUUGAGAUGGCCUUGCAAAGGGUAUGGUAAUAAGCUGACGGACAUGGUCCUAACCACGCAGCCAAGUCCUAAGUCAACAGAUCUUCUGUUGAUAUGGAUGCAGUUCACAGACUAAAUGUCGGUCGGGGAAGAUGUAUUCUUCUCAUAAGAUAUAGUCGGACCUCUCCUUAAUGGGAGCUAGCGGAUGAAGUGAUGCAACACUGGAGCCGCUGGGAACUAAUUUGUAUGCGAAAGUAUAUUGAUUAGUUUUGGAGUACUCGUGGUCG
Summary of the method: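 Fitness was computed with DiMSum as the error-weighted combination of replicate fold changes, kanamycin versus none, each normalised to wild type. The library randomised all eight intron nucleotides of the P1ex region, with the intron placed in the knt kanamycin-resistance gene on pET-22b(+) in E. coli BL21(DE3). Six replicate transformations were grown overnight at 37°C or 30°C on LB agar with or without 25 μg/mL kanamycin, plus 100 μg/mL carbenicillin, 50 μM IPTG and 0.2% rhamnose. Pooled colonies were amplicon-sequenced on an Illumina HiSeq 2500.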

Row | Sequence | self-splicing fitness (ln) (30 °C) | self-splicing fitness (ln) (37 °C)
1 | AGCAAGCAAUAUUACGCGCA | -0.742 ± 0.07 | 0.548 ± 0.11
2 | CCUGAGCAAUAUUACGGUAG | -3.11 ± 0.2 | -2.26 ± 0.2
3 | UGACAGCAAUAUUACGAGCU | -2.11 ± 0.083 | -1.53 ± 0.083
4 | AUCAAGCAAUAUUACGAUAU | -1.21 ± 0.065 | -0.753 ± 0.092
5 | UUUUAGCAAUAUUACGUAAG | -0.681 ± 0.13 | -0.523 ± 0.14
6 | GACCAGCAAUAUUACGGUCG | -1.98 ± 0.077 | -1.47 ± 0.11
7 | AAAAAGCAAUAUUACGCGAU | -2.51 ± 0.16 | -1.07 ± 0.14
8 | CUUAAGCAAUAUUACGUAUC |  | -2.98 ± 0.33
9 | UCCGAGCAAUAUUACGCAGC | -4.03 ± 0.35 | -2.51 ± 0.39
10 | AGAGAGCAAUAUUACGCGGA |  | -2.21 ± 0.34
11 | GUGCAGCAAUAUUACGAAUU | -1.43 ± 0.091 | -0.441 ± 0.12
12 | AUGUAGCAAUAUUACGAGAA | -2.68 ± 0.39 | -1.01 ± 0.22
13 | AGCGAGCAAUAUUACGUCUG | -2.03 ± 0.11 | -1.8 ± 0.14
14 | UUGGAGCAAUAUUACGAGGG | -2.34 ± 0.22 | -2.6 ± 0.49
15 | CAUGAGCAAUAUUACGGCGG | -0.18 ± 0.094 | -0.278 ± 0.14
16 | ACGAAGCAAUAUUACGGCAA | -1.04 ± 0.13 | -0.678 ± 0.13
17 | GAGCAGCAAUAUUACGCUUC | -2.37 ± 0.28 | 
18 | UAAAAGCAAUAUUACGUCGA | -1.39 ± 0.1 | -0.424 ± 0.12
19 | UGCAAGCAAUAUUACGCACA | -1.38 ± 0.12 | -0.954 ± 0.13
20 | UUAUAGCAAUAUUACGACGU | -3.45 ± 0.25 | -1.14 ± 0.16
21 | CCCUAGCAAUAUUACGGCAU | -3.41 ± 0.24 | -1.94 ± 0.17
22 | AACGAGCAAUAUUACGAAUA |  | -1.63 ± 0.34

Row | Sequence | self-splicing fitness (ln) (30 °C) | self-splicing fitness (ln) (37 °C)
23 | CCUGAGCAAUAUUACGGCUC | -3.81 ± 0.37 | -2.97 ± 0.41
24 | GUGAAGCAAUAUUACGGCAU | 0.0954 ± 0.083 | 0.334 ± 0.089
25 | CAUGAGCAAUAUUACGGGCC |  | -1.98 ± 0.36
26 | GCGUAGCAAUAUUACGGCAA | 0.755 ± 0.46 | -1.01 ± 0.27
27 | UUACAGCAAUAUUACGUCUA | -0.0634 ± 0.086 | -0.0325 ± 0.079
28 | ACUGAGCAAUAUUACGCUGU | -3.42 ± 0.28 | -1.7 ± 0.25
29 | CUUCAGCAAUAUUACGGGGA | -3.36 ± 0.27 | -1.65 ± 0.18
30 | UCGAAGCAAUAUUACGUCAU | -2.62 ± 0.15 | -2.58 ± 0.21
31 | CGGCAGCAAUAUUACGCAGC | -3.98 ± 0.34 | -1.71 ± 0.2
32 | GAUUAGCAAUAUUACGGAUG | -2.07 ± 0.16 | -0.375 ± 0.15
33 | ACCCAGCAAUAUUACGGCAG | -3.84 ± 0.21 | -2.74 ± 0.18
34 | UGGUAGCAAUAUUACGGUAA | -1.34 ± 0.18 | -0.209 ± 0.12
35 | UACAAGCAAUAUUACGUGGC | -3 ± 0.14 | -1.94 ± 0.22
36 | GAGCAGCAAUAUUACGGGGG | -3.36 ± 0.26 | -2.46 ± 0.32
37 | CGGGAGCAAUAUUACGAAUC |  | -0.75 ± 0.23
38 | CCAGAGCAAUAUUACGAAGU | -4.41 ± 0.46 | -2.8 ± 0.34
39 | AACGAGCAAUAUUACGGAUG | -3.34 ± 0.31 | 
40 | CGGUAGCAAUAUUACGUCGA | -2.09 ± 0.23 | -0.214 ± 0.16
41 | UCACAGCAAUAUUACGGGCA | -0.496 ± 0.075 | -0.337 ± 0.083
42 | CUUGAGCAAUAUUACGUAAU | -2.79 ± 0.18 | -2.81 ± 0.24
43 | GUGAAGCAAUAUUACGGGCU | -2.08 ± 0.13 | -0.869 ± 0.15
44 | UCAGAGCAAUAUUACGAUAA |  | -2.46 ± 0.41

Row | Sequence | self-splicing fitness (ln) (30 °C) | self-splicing fitness (ln) (37 °C)
45 | GAAAAGCAAUAUUACGUCUG | -0.835 ± 0.068 | -0.219 ± 0.084
46 | CAUAAGCAAUAUUACGUUAU | -4.62 ± 0.3 | -2.58 ± 0.16
47 | CAUUAGCAAUAUUACGUGUU | -3.38 ± 0.18 | -2.69 ± 0.2
48 | UAUGAGCAAUAUUACGGCGG | -3.22 ± 0.23 | -1.72 ± 0.26
49 | AAUCAGCAAUAUUACGCGAG | -0.887 ± 0.068 | -1.07 ± 0.088
50 | CAACAGCAAUAUUACGCCUU | -2.95 ± 0.11 | -1.1 ± 0.081
51 | UACGAGCAAUAUUACGCCGC | -2.03 ± 0.41 | -2.1 ± 0.3
52 | GCCUAGCAAUAUUACGUAAU | -0.648 ± 0.071 | 0.224 ± 0.087
53 | GUGGAGCAAUAUUACGGUGU | -2.5 ± 0.17 | -1.78 ± 0.22
54 | CUGCAGCAAUAUUACGCGAC | -2.19 ± 0.14 | -0.91 ± 0.12
55 | ACCAAGCAAUAUUACGUAUA | -3.38 ± 0.16 | -2.36 ± 0.12
56 | CCCAAGCAAUAUUACGUGCU | -2.08 ± 0.11 | -2.6 ± 0.2
57 | GCUUAGCAAUAUUACGCACG | -2.19 ± 0.092 | -0.388 ± 0.1
58 | AAGGAGCAAUAUUACGCUCA |  | -0.14 ± 0.37
59 | UGUUAGCAAUAUUACGCCCC |  | 0.337 ± 0.48
60 | UACAAGCAAUAUUACGUCUU | -3.55 ± 0.17 | -1.68 ± 0.13
61 | AAGUAGCAAUAUUACGUCGU | -0.969 ± 0.093 | -0.724 ± 0.11
62 | UUGCAGCAAUAUUACGACGU | -3.09 ± 0.29 | -1.11 ± 0.14
63 | UUCAAGCAAUAUUACGAUUG | -3.63 ± 0.35 | -2.24 ± 0.27
64 | GUUGAGCAAUAUUACGCGGA |  | -0.744 ± 0.35
